Experimental data reported in publication PMC10379010, “Short Peptides of Innate Immunity Protein Tag7 (PGLYRP1) Selectively Induce Inhibition or Activation of Tumor Cell Death via TNF Receptor” (International Journal of Molecular Sciences, 2023).

T1: soluble TNFR1 receptor domain (sTNFR1) (UniProt P19438 30-211, fluorescently labeled with Alexa Fluor 633 or Alexa Fluor 488 in the MST only)
T1 construct: TNF receptor TNFR1, soluble extracellular domain (sTNFR1); also called soluble TNFR1 site; source: recombinant, obtained as described in [10], purified
T1 sequence (looked up): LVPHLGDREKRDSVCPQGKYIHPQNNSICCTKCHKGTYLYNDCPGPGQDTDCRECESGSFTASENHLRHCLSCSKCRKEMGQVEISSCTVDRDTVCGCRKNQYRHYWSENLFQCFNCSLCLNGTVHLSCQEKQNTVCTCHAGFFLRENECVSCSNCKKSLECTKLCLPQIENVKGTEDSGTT

B1: Tag7 protein (PGLYRP1) (natural protein, UniProt O75594 22-196, looked up)
chain: QETEDPACCSPIVPRNEWKALASECAQHLSLPLRYVVVSHTAGSSCNTPASCQQQARNVQHYHMKTLGWCDVGYNFLIGEDGLVYEGRGWNFTGAHSGHLWNPMSIGISFMGNYMDRVPTPQAIRAAQGLLACGVAQGALRSNYVLKGHRDVQRTLSPGNQLYHLIQNWPHYRSP
notes: Tag7 (PGLYRP1), innate immunity protein; also called full-sized Tag7 protein; source: recombinant, obtained as described in [10]
B2: peptide 17.1A (peptide)
peptide: HRDVQRT
notes: Not biotinylated; used in the MST and the cytotoxicity tests; source: synthetic peptide (Fmoc, HPLC purified)

Target: T1, soluble TNFR1 receptor domain (sTNFR1)
Assay: MST; sTNFR1 or Hsp70 labeled with Alexa Fluor 633 or 488 (200 nM), 20 min in the dark at room temperature with 16 concentrations of each compound; Monolith NT 115, IR laser power 10%; apparent Kd; triplicate
Conditions: both partners purified

Binder	Kd
B1	43.2 nM
B2	5.44 nM
